Reference: patent US20250122254A1, “Recombinant Fusion Proteins Comprising Interleukin- 18-Binding Protein and Antigen Binding Fragment to Serum Albumin, and Compositions and Uses Thereof” (published 2025)
Where two headings read alike, the source gives them in different places.

Columns and labels:
recombinant human IL-18 [1] = biological target: T1, recombinant human IL-18 (human, UniProt Q14116); assay: cell-based or functional assay
recombinant human IL-18 [2] = biological target: T1, recombinant human IL-18
Target sequence in this assay (Q14116 37-193 limits assumed): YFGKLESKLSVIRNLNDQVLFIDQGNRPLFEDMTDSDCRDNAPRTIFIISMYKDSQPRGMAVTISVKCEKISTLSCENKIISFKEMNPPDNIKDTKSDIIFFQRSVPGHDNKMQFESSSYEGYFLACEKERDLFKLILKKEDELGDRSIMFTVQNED

Row | IC50 of inhibition of IL-18-induced IFN-γ production in KG-1 cells (recombinant human IL-18 [1]) | IC50 of inhibition of IL-18-induced IFN-γ production in KG-1 cells (recombinant human IL-18 [2]) | Binder
1 | 0.024 nM | – | recombinant human IL-18-binding protein with His-tag (hIL18BP-his8) (other) TPVSQTTTAATASVRSTKDPCPSQPPVFPAAKQCPALEVTWPEVEVPLNGTLSLSCVACSRFPNFSILYWLGNGSFIEHLPGRLWEGSTSRERGSTGTQLCKALVLEQLTPALHSTNFSCVLVDPEQVVQRHVVLAQLWAGLRATLPPTQEALPSSHSSPQQQGHHHHHHHH
2 | – | 0.0419 nM | APB-R3 protein (protein) heavy: QVQLVQSGGGPVKPGGSLRLSCAASGFMFRAYSMNWVRQAPGKGLEWVSSISSSGRYIHYADSVKGRFTISRDNAKNSLYLQMNSLRAEDTAVYYCARETVMAGKALDYWGQGTLVTVSSASTKGPSVFPLAPSSKSTSEGTAALGCLVKDYFPEPVTVSWNSGALTSGVHTFPAVLQSSGLYSLSSVVTVPSSSLGTQTYICNVNHKPSNTKVDKKVEPKSSGSAPAPGSTPVSQTTTAATASVRSTKDPCPSQPPVFPAAKQCPALEVTWPEVEVPLNGTLSLSCVACSRFPNFSILYWLGNGSFIEHLPGRLWEGSTSRERGSTGTQLCKALVLEQLTPALHSTNFSCVLVDPEQVVQRHVVLAQLWAGLRATLPPTQEALPSSHSSPQQQG light: DIVLTQSPGTLSLSPGETATLSCRASQSVGSNLAWYQQKPGQAPRLLIYGASTGATGVPARFSGSRSGTDFTLTITSLQPEDFATYYCQQYYSFLAKTFGQGTQLEIKRTVAAPSVFIFPPSDEQLKSGTASVVCLLNNFYPREAKVQWKVDNALQSGNSQESVTEQDSKDSTYSLSNTLTLSKADYEKHKVYACEVTHQGLSSPVTKSFNRGES
